Test: soluble on expression in E. coli; label from the status in PepcDB or PDB records

**Q.** For “NNINVITDQMGNLDIKSNDNINQNTQNSNVASDLNLLTQNKYLENILMMNTYGVNYDHLFLPQNVAYLAAQQLSNNIMNNRNQINAAYTSQQYPNQSIPIKNIYDQSHLKYQQNSSSWRPPLNNGNIYDGVKSNPMGLHILQNGIDLYTNVDSNSVTSAINFDKYDSIPVSVTGPDYSATNVIENFDELKLDPTIRNNILLASYQRPTPIQKNAIPAILEHRDIMACAQTGSGKTAAFLIPIINHLVCQDLNQQRYSKTAYPKCLILAPTRELAIQILSESQKFSLNTPLRSCVVYGGADTHSQIREVQMGCHLLVATPGRLVDFIEKNKISLEFCKYIVLDEADRMLDMGFEPQIRKIIEESNMPSGINRQTLMFSATFPKEIQKLAADFLYNYIFMTVGRVGSTSDSIKQEIIYMTDVEKLNYLKNIFNTTAPNTLILIFVETKKGADSLARFLLSKGYPVSSIHGDRSQVEREAALSMFRNGQCPILVATAVAARGLDIPNVKHVINYDLPSDIEEYVHRIGRTGRLGNHGRATSFYVDKNNNIAIDLVDLLKEANQIVPQWLSALADELKRNSTMGSNNKRHNQRRYKNGNFGGRDYRQGPSNVNMNSGVNPDYFISGSVAPRHAKLNNGNYFPRSNELHDQHQKQNNNNNQVISNTFHTGISASHLIPGYATFNRQQAPLHFIPHQTNNTQFLSSSGQMALYNRMQNSGHMAPNQRFPNEPIHHQQEQLPITYNFSKNLPYLGQSYSGHNNNNNNNNNTSKINDSDSCYFGNKTPR”, which “soluble on expression in E. coli” value is on record?
**A.** Its value is “soluble”.

**Q.** With “MEPTENLDVCLATLRDTDRDRYLACLLSPADKRNALAALYAFNAEIARIRDSVREALPGEVRMQWWRDLVDGNPHGDSQSHPVAAALLTTIEHYRLPRPVLGNMIEARIFDLYDDLFEDRNALEGYAGETASALIQLASLVLSAEDAAHSAEAAGHAGVAQAMAGMLLLMPLHRRRGQVYIPADMLAAAGLDRETFLAGQDRQRIGIAVEIFAAHALDHIEKARRATISKNLFAAYLPVALSGPVIAAARKAGAGVFDGDLQLSQLRRQWLLAKASFLKRF” as the sequence, how does the “soluble on expression in E. coli” value read?
**A.** Its value is “not soluble”.

**Q.** With “DVKIEKLKDNLYVYTTYNTFNGTKYAANAVYLVTDKGVVVIDCPWGEDKFKSFTDEIYKKHGKKVIMNIATHSHDDRAGGLEYFGKIGAKTYSTKMTDSILAKENKPRAQYTFDNNKSFKVGKSEFQVYYPGKGHTADNVVVWFPKEKVLVGGCIIKSADSKDLGYIGEAYVNDWTQSVHNIQQKFSGAQYVVAGHDDWKDQRSIQHTLDLINEYQQKQKASN” as the sequence, how does the “soluble on expression in E. coli” value read?
**A.** Its value is “soluble”.

**Q.** With “MLEIRHLKTLHALREADSLVDAAERLHLTQSALSHQFKELEERMGMPLFVRKTKPVRFTSAGLRLLQLADSMLPQLRSAERDIARLAGGTAGRLHMAIECHSCFQWLMPTIDQFRDAWPEVELDLSSGFSFAPLPALARGDLDLVVTSDPLELPGITYVPLFTYEAMLAVANQHALASKPYIVPEDLLPETLITYPVERDRLDIFTRFLEPADIEPAQVRTSELTVMMMQLVASGRGVCGMPHWALHEYSSRGYVKAKRLGEKGLFATLYAGIRADMLDAPYMRDFLLTAKDTSFSTLDGVSVVR” as the sequence, how does the “soluble on expression in E. coli” value read?
**A.** The value was “not soluble”.

**Q.** With “AHHHHHHGSRFLIRLVPEDKDRAFKVPYNHQYYLQGLIYNAIKSSNPKLATYLHEVKGPKLFTYSLFMAEKREHPKGLPYFLGYKKGFFYFSTCVPEIAEALVNGLLMNPEVRLWDERFYLHEIKVLREPKKFNGSTFVTLSPIAVTVVRKGKSYDVPPMEKEFYSIIKDDLQDKYVMAYGDKPPSEFEMEVLIAKPKRFRIKPGIYQTAWHLVFRAYGNDDLLKVGYEVGFGEKNSLGFGMVKVEGNKTTKEAEEQEKITFNSREELKTGV” as the sequence, how does the “soluble on expression in E. coli” value read?
**A.** The value was “not soluble”.

**Q.** Which “soluble on expression in E. coli” value does the source give for “GPGSMSAGGRETAPMNLLRRRNKDEINGDVNAAADRFRNRFEKATLEERKAATTTMVNEYYDLVTDFYEYGWGQNFHFAPRYAGETFFESLARHEYFLAARGGFMEGDHIVDVGCGVGGPARNIVRLTRCNVTGVNNNDYQISRARRHDALAGMSCKIDYVKTDFCNMSLADNTFDGAYAIEATCHAKDKVKCYSEVFRVIKPGTCFVLYEWCMTDKYNPNDEYHRTIKHRIELGDGLPEMETCKQVIEYMKEAGFVVEEAIDVISQFESSPIKSIPWYQPLVGDYSSLQGLRSTPIGRILTNIMCRVLEFVHLAPKGTYKATEVLEEAAESLVVGGQLGIFTPSFYIRARKPSKQA” here?
**A.** Its value is “not soluble”.

**Q.** With “MQPERYVWAKYFWEQARDANGVARRHLGDTTRNNGAPTVGSPFVALCGIDVTPHPEDTDTARGTCFAPACMVCTTLFARATGWSAGAIGNLIQTFQWTNNDVRQLGLALGMTASQTRRQIEQWTQEADKVNKARHTAKQQKAAGR” as the sequence, how does the “soluble on expression in E. coli” value read?
**A.** Its value is “not soluble”.

**Q.** For “MGSDKIHHHHHHMWEVRYLNAELLDLKLWGEGCRLYQIRQMGDDEICLIQTDDTPQESLCERWQVVYAERGAVQQLLFEFTDEAEACEFMYREIKRIKHPHLVGLFPTDAEAEQFCQVLTQLEIQFSHDPQGRVRVYDQEIFTVERHFGCQLPLRKWLSVPERIHVTLARLRKFDPYNCYAQITTNPPIGSEAKLSELEAEHRIKLPEVYRTFLLEVCNGGNWERLGHYWSAEEVMANNSAQLWNQPLPEFLAKLKAAKSGDWLTNPGNRQYPGLLRIVDWDNPVRDLFLTQEGYEVEIQGDWIRFCEFSPEQWLKDFLDDIQYGLFPIEGLLAFLRSGELIRDYPYFHTVNFARLLAETIGLNIDPELTNEQVKMSDEIDYKINQWRIENMGKMRYNFGFNAEQAEVRRQRILERLEYLYQLYS”, which “soluble on expression in E. coli” value is on record?
**A.** The value was “not soluble”.

**Q.** Which “soluble on expression in E. coli” value does the source give for “MSLSASTHDLVIIGAGPAGMSAALTAASLGMKTLLLDEQLRPGGQIYRNITAVPPSVAALLGPDYRHGEGLAARLGRSGVELRFGAMVWDVARDLTVTAQQDGQSFQVRAPQLIAATGAMERASPIPGWTLPGVLNAGAAQIALKSASAVPSGRVVLAGSGPLLLLVACQLLDAGVSLAGIVETSPSTNRWRALRHLPAALGAHAYLAKGLRMLWRLRRAGVPMFAAATSLRVEGGERVQALAFKADRIDHLLHADVVLLHHGVVPNTQLSRLLRVDHDWDLVQLAWRPQVNAWGETSLAGFRVAGDGAAIAGAQAAEPNGTLAALGAAQALGRLDVTECEQRAASARGTLKRQLRIRPFLDALYRPPEWLSDPTDETVVCRCEEVTAGRVREMARLGCQGPNQTKFFSRCGMGPCQGRVCGLTVTQILSTELGRPPSEVGAYHIRSPLKPVPLASIAALADTATIENSEPMETTEGHHHHHH” here?
**A.** Its value is “not soluble”.

**Q.** With “MRDVQKQYNKQEGFVQGYSIIDSYSEDEIPKDGKRSTIQLVHEMGLEKARRIYGENYQCLVATQCDGKSGLYHNHLISNAVGNDGKSQRGDMTKWTKLAEISDQVMIDYGYTPLDKNNWRLNKTRKAEARSKGEYVSPNERKARKNGMTLAKDEVREQIQKVIDDETVKSFEDFKQMLNEEYQIGVEDAGTKDGENIKYSFSYTNKKGETSEKTIKAKTLSKEDYTLSGVKSKIEDKLLETGNFEINENDLTQQQQQMLSNLIVPEDDEDELELEFDDESLAFLDQINEEVKEYGREKHSSKATRNNQRVEKQHRDHQRHVENNERSTTRTKSSSKRAKDKDAGFELG” as the sequence, how does the “soluble on expression in E. coli” value read?
**A.** The value was “not soluble”.

**Q.** Which “soluble on expression in E. coli” value does the source give for “MGSDKIHHHHHHMGKKTTIAIAHSDADLGKPAEYTRDQLDLVKAMIRQIADQTMGGMGNIVHKGDKVLIKINTVIPVPANAGFTTDPRMLEALIELVQEQNPGRIQIGERCAMGADTMEAMRVCGIVDVAERTGVELCPFEHAEFDMYKIDRPISFNEFPVPRPVRDADCYIGLPKMKVHVHTTFTGAMKLQFGNLPNYDWMVRCHRDDIYQKIVNLTRAANPKWFVMDSLYACQGNGPFSPYSEDLIKDFNTICGGPDPVAVDTVCEALMDWDYPGTNVPSTVLGAAEGLGTNRMNEIELAGAPLDKVKRRFKRQNTILQGQYPNVNLVMGSTCEAGCKAIVRIQLDQLQADGTLERLEKPITIFTGLQFEEHINKVEGDVLIVGDCAKGMLEKFPDARYWGDCEEYPNCTPIWANRPDVGIANYVRQLTAVREGNAR” here?
**A.** The value was “not soluble”.

**Q.** Which “soluble on expression in E. coli” value does the source give for “MKNKKTLTKVALTTGLALTAVAPYGVGHAEETDQLQVQIQEESFRSGELTQPSQKAPENVVKDALKEKTEQALSPKQVNGETGVDYKVLQKRGSYDGTTLVRIQQTYEGKEVYGHQLTAHVDNSGVIKSVSGDSAQNLKQEELKKPINLSKDEATQYIYTKYGNDINFISEPEVKEVIFVDENNGQASNAYQVTFEAATPNYISGTYLINAQNGDMLKNMVQESNLKASEKLVGALKKSKKSSLTSLTGTGKDDLGISRSFGISKQSNGKYALADYTRGQGIETYDVNYRDITKEESYYPGTLATSTSTTFNDPKAVSAHYLATKVFDFYKDKYNRNSFDNQGQKVVSVVHAWDSGDTNDPKNWQNALSANNGSMLVYGDPIVKAYDVAGHEFTHAVTSSESNLEYYGESGAINEALSDIMGTSIEKYVNNGSFNWTMGEQTGSVFRDMENPTSVPSSLGVPYPDDYSEFNDFNGWDQGGVHFNSSIINKVAYLIAKGGTHNGVTVKGIGEDKMFDIFYYANTDELNMTSNFKELRSACIRVATNKYGANSAEVQAVQKAFDAAKIK” here?
**A.** Its value is “not soluble”.

**Q.** For “MGHHHHHHSHMGKGPNLLALQLSDSTLADIIARLQAGQKLSGSSPFSSAFNSLSLDKESGLLMFKGDKKPRVWVVPTQLRRDLIFSVHDIPLGAHQRPEETYKKLRLLGWWPGMQEHVKDYCRSCLFCIPRNLIGSELKVIESPASVLRGQGVCNRSGTR”, which “soluble on expression in E. coli” value is on record?
**A.** The value was “not soluble”.

**Q.** For “MGSDKIHHHHHHMTFRALPSVDRLIRAVRSDGADMPHELVREAARAVLNEARTSISAGHPPPDLSTLVAAVQARLRADVTPSLRPLINATGVIIQTNLGRAPLSAAACAAMQEVGSGYSNLEYDLAQGERGSRHVHLESLLVQLTGAEAALVVNNNAAAVYLVLIAMAAGREVIVSRGQAVEIGGGFRIPDVLRASGALLIEVGTTNRTYARDYTAAITERTALILRVHTSNFRLIGFVHEPPLAELTAVAHTHGIPLLDDLGSGTLIDTRQFDLPPEPTVQESVAAGADLVTFSGDKLLGGPQAGIIVGRRELIARLRRHPLARALRVDKCTIAGLTATLHSYLRGTALREIPVWQLISTPLSALQARAERIAGALRAAGIPAQMVDCASAIGGGSLPGATQPSAGVALPPVGCGATVLAHRLRMANPPVITRIVDDQVLCDLRSVFPHEDTTLINVVREVWQ”, which “soluble on expression in E. coli” value is on record?
**A.** Its value is “not soluble”.

**Q.** With “MADIDNKEQSELDQDLEDVEEVEEEETGEETKIKARQLTVQMMQNPQILAALQERLDGLVDTPTGYIESLPKVVKRRVNALKNLQVKCAQIEAKFYEEVHDLERKYAVLYQPLFDKRFEIINAIYEPTEEECEWKPDEEDEVSEELKEKAKIEDEKKDEEKEDPKGIPEFWLTVFKNVDLLSDMVQEHDEPILKHLKDIKVKFSDAGQPMSFVLEFHFEPNDYFTNEVLTKTYRMRSEPDDSDPFSFDGPEIMGCTGCQIDWKKGKNVTLKTIKKKQKHKGRGTVRTVTKTVSNDSFFNFFAPPEVPENGDLDDDAEAILAADFEIGHFLRERIIPRSVLYFTGEAIEDDDDDYDEEGEEADEGYQLFEEVKSCSKLFQRWLQ” as the sequence, how does the “soluble on expression in E. coli” value read?
**A.** Its value is “soluble”.

**Q.** Which “soluble on expression in E. coli” value does the source give for “MGCCQSKKARNNQRNNQRSDQMNRQHTQPSPNASTEQMAYPRQQPQGIPQGPPPAYAPPAAPKAPEKVVEPKNRRVTIAEPPERVAEPSPTPEDPELFTCIDQTEKEVEKEVEKRKSAPRAPVPAPTPAPQAAPQATPAAPAQAYPQQQQAAPVVYGSQPMVMGAAPVAPVVMAPPPVIMSPYPYYGGGVMFDPYYNGFYGGYGYGGFDFGYGGYGGYGCGFY” here?
**A.** Its value is “not soluble”.

**Q.** Which “soluble on expression in E. coli” value does the source give for “MELNAVKSSYARWAPIYDKTFGAITNVGRHAAVDYINAHDATELLEVGVGTGLSLPNYRPGLKVTGIDFSEEMLAKARAKVESLGLGHVQSLRQMDARDLDFADASFDVVAAMHIISVVPEPERVMAEMARVCKPGGLIVITNHFARDSGMLARVERFAAPFANLLGWHPDFEISSVLKQPLEHHHHHH” here?
**A.** Its value is “not soluble”.

**Q.** With “MFDSLAKAGKYLGQAAKLMIGMPDYDNYVEHMRVNHPDQTPMTYEEFFRERQDARYGGKGGARCC” as the sequence, how does the “soluble on expression in E. coli” value read?
**A.** Its value is “soluble”.

Source: the DeepSol protein solubility set
